Experimental data: doi:10.1101/2021.07.20.452843 (bioRxiv, 2021)

Target: the molecule itself
Test: SEC

B1: His-PodJ(1-635) (domain or fragment, Caulobacter crescentus, UniProt Q9ZG88 1-635, looked up)
chain: MTAASPWSVKGIDPKAREVAKDLARRSGMTLGEWLNRMIIEGDGQTADPRLAGDDVPNRAYLEIVKDDAPPRIEIAEHPADEVGRVALALDRLTQRIEAAEGRNAAAITGIDHSVRDALTRLGASEREQIAVAARFEGAVDELKTEQARATERLRRIESEAAGPRSAEALRALEGALGKVAGHLYEGEARTREAIATLEAKLNQQSSGDPSALVEAVVARLGERLEAAETRTSDALRELGASFQALDQRLGAVETANPATGVQEGLDSLAATLTQKMEAARLEMAAKLRESADGRFDRMERKLGEMAAHVQAAEQRSAQAIERMGREIVGVADAFNRRVHAAESRNASAIEQVGGEVARIAASVEHKLNRADSVQAQALEKLGGEIARITEKLAERIGSAERRNALAIDDVGEQVARVTERLNQRHERSSQELVDRIRQSEERTLRMLEEAREKIDSRLSEAQRKLEAAPPSPPPAQAPAPVATAQRPVPPAASPFEDNYFSQAASFSTSEDEADAFDAPPAPARSFEVAEFPAAEPEEPAFAHDDYAIADGFEPESPRYEVEPEVSDFAPAEPSRPMSTRDIIEQARAAARAAAASEGKGGKAKSAKKEKASKASGSLFSGFGGFSTKKSKARL
- binding result: binds
